The values below come from publication PMC3678999, “A Structural Basis for IκB Kinase 2 Activation Via Oligomerization-Dependent Trans Auto-Phosphorylation” (PLoS Biology, 2013).

Where “and” joins values, the source holds several entries; their conditions need not be identical. Identical values can stand only once.

Data set [1] concerns the molecule itself. The experiment in a line: crystal structure; tetragonal crystal form, space group P4(1)22, six protomers in the asymmetric unit; protein mixed with inhibitor MLN120B 1:2; sodium malonate pH 6.5, 18°C.
The target in data set [2] is T1, His-tagged full-length human IKK2 (human), O14920.
T1 chain: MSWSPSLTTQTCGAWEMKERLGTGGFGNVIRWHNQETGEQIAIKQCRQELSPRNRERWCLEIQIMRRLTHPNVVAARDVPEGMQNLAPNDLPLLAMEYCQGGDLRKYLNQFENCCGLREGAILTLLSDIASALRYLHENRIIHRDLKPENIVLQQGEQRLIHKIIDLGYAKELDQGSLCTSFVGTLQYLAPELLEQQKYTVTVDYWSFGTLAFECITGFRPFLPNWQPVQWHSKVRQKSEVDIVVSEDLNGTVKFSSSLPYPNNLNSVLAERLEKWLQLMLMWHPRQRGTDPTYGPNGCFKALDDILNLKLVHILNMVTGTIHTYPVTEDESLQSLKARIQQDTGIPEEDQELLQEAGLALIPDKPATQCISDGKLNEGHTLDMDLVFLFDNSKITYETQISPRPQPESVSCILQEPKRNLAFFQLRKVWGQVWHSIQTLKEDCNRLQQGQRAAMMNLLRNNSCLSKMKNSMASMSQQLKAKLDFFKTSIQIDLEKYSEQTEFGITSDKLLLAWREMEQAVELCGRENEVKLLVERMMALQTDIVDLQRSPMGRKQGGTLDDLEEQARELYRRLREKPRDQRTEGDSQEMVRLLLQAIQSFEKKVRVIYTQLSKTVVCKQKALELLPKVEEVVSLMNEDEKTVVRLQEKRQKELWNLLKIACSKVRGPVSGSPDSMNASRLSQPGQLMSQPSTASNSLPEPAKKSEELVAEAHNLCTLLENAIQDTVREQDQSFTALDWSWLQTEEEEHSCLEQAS
The experiment in a line: AUC; sedimentation velocity, ~0.5 mg/ml, 30,000 rpm, 20°C, 15 h; Sedfit. The note with it: remark: other sources report otherwise.

The target in data set [3] is T1, His-tagged full-length human IKK2 …. The experiment in a line: SEC-MALS; SEC-MALLS; protein pretreated with 1 mM ATP, concentrated as for crystallization; Zenix SEC-300 column, 20 mM Tris-Cl pH 8, 150 mM NaCl, 5% glycerol. The note with it: remark: other sources report otherwise. (In general: SEC sorts molecules by how far they enter the pores of the column.)
Data set [4] deals with the molecule itself. Kind of data set: crystal structure; hexagonal crystal form, data to 7 Å; molecular replacement with the hIKK2EE(11–669) model and rigid body refinement, called a probable solution; protein mixed with inhibitor MLN120B.

B1: human IKK2 (amino acids 11–669), constitutively active S177E/S181E (domain or fragment, UniProt O14920 11-669, looked up)
chain: TCGAWEMKERLGTGGFGNVIRWHNQETGEQIAIKQCRQELSPRNRERWCLEIQIMRRLTHPNVVAARDVPEGMQNLAPNDLPLLAMEYCQGGDLRKYLNQFENCCGLREGAILTLLSDIASALRYLHENRIIHRDLKPENIVLQQGEQRLIHKIIDLGYAKELDQGELCTEFVGTLQYLAPELLEQQKYTVTVDYWSFGTLAFECITGFRPFLPNWQPVQWHSKVRQKSEVDIVVSEDLNGTVKFSSSLPYPNNLNSVLAERLEKWLQLMLMWHPRQRGTDPTYGPNGCFKALDDILNLKLVHILNMVTGTIHTYPVTEDESLQSLKARIQQDTGIPEEDQELLQEAGLALIPDKPATQCISDGKLNEGHTLDMDLVFLFDNSKITYETQISPRPQPESVSCILQEPKRNLAFFQLRKVWGQVWHSIQTLKEDCNRLQQGQRAAMMNLLRNNSCLSKMKNSMASMSQQLKAKLDFFKTSIQIDLEKYSEQTEFGITSDKLLLAWREMEQAVELCGRENEVKLLVERMMALQTDIVDLQRSPMGRKQGGTLDDLEEQARELYRRLREKPRDQRTEGDSQEMVRLLLQAIQSFEKKVRVIYTQLSKTVVCKQKALELLPKVEEVVSLMNEDEKTVVRLQEKRQKELWNLLKIACSKVRGPV
notes: human IκB kinase 2 (IKK2/IKKβ), amino acids 11–669, with S177E/S181E; Cloned in pFastBacHTb (N-terminal hexa-histidine tag, TEV site); Incubated with ATP/MgCl2 before the size exclusion column; also called IKK2(11–669)EE; hIKK2EE(11–669); source: Sf9 (baculovirus), purified (Ni-NTA, TEV, Superdex200); not shown: His6, N-terminal, cleaved
For the molecule B1, the stoichiometry N (as a rule, the number of molecules, sites or subunits per partner or assembly) in data set [1] is 2 and 4.

B2: His-tagged full-length human IKK2, O14920 1-756 (enzyme)
chain: MSWSPSLTTQTCGAWEMKERLGTGGFGNVIRWHNQETGEQIAIKQCRQELSPRNRERWCLEIQIMRRLTHPNVVAARDVPEGMQNLAPNDLPLLAMEYCQGGDLRKYLNQFENCCGLREGAILTLLSDIASALRYLHENRIIHRDLKPENIVLQQGEQRLIHKIIDLGYAKELDQGSLCTSFVGTLQYLAPELLEQQKYTVTVDYWSFGTLAFECITGFRPFLPNWQPVQWHSKVRQKSEVDIVVSEDLNGTVKFSSSLPYPNNLNSVLAERLEKWLQLMLMWHPRQRGTDPTYGPNGCFKALDDILNLKLVHILNMVTGTIHTYPVTEDESLQSLKARIQQDTGIPEEDQELLQEAGLALIPDKPATQCISDGKLNEGHTLDMDLVFLFDNSKITYETQISPRPQPESVSCILQEPKRNLAFFQLRKVWGQVWHSIQTLKEDCNRLQQGQRAAMMNLLRNNSCLSKMKNSMASMSQQLKAKLDFFKTSIQIDLEKYSEQTEFGITSDKLLLAWREMEQAVELCGRENEVKLLVERMMALQTDIVDLQRSPMGRKQGGTLDDLEEQARELYRRLREKPRDQRTEGDSQEMVRLLLQAIQSFEKKVRVIYTQLSKTVVCKQKALELLPKVEEVVSLMNEDEKTVVRLQEKRQKELWNLLKIACSKVRGPVSGSPDSMNASRLSQPGQLMSQPSTASNSLPEPAKKSEELVAEAHNLCTLLENAIQDTVREQDQSFTALDWSWLQTEEEEHSCLEQAS
Consider B2, for which the stoichiometry N in data set [2] was 4 and 6 and 8; in data set [3], 4.

B3: human IKK2 (amino acids 1–700), constitutively active S177E/S181E (domain or fragment, UniProt O14920 1-700, looked up)
chain: MSWSPSLTTQTCGAWEMKERLGTGGFGNVIRWHNQETGEQIAIKQCRQELSPRNRERWCLEIQIMRRLTHPNVVAARDVPEGMQNLAPNDLPLLAMEYCQGGDLRKYLNQFENCCGLREGAILTLLSDIASALRYLHENRIIHRDLKPENIVLQQGEQRLIHKIIDLGYAKELDQGELCTEFVGTLQYLAPELLEQQKYTVTVDYWSFGTLAFECITGFRPFLPNWQPVQWHSKVRQKSEVDIVVSEDLNGTVKFSSSLPYPNNLNSVLAERLEKWLQLMLMWHPRQRGTDPTYGPNGCFKALDDILNLKLVHILNMVTGTIHTYPVTEDESLQSLKARIQQDTGIPEEDQELLQEAGLALIPDKPATQCISDGKLNEGHTLDMDLVFLFDNSKITYETQISPRPQPESVSCILQEPKRNLAFFQLRKVWGQVWHSIQTLKEDCNRLQQGQRAAMMNLLRNNSCLSKMKNSMASMSQQLKAKLDFFKTSIQIDLEKYSEQTEFGITSDKLLLAWREMEQAVELCGRENEVKLLVERMMALQTDIVDLQRSPMGRKQGGTLDDLEEQARELYRRLREKPRDQRTEGDSQEMVRLLLQAIQSFEKKVRVIYTQLSKTVVCKQKALELLPKVEEVVSLMNEDEKTVVRLQEKRQKELWNLLKIACSKVRGPVSGSPDSMNASRLSQPGQLMSQPSTASNSLPE
notes: human IκB kinase 2 (IKK2/IKKβ), amino acids 1–700 (amino acid 701 mutated to a stop codon), with S177E/S181E; Hexagonal crystal form, data to 7 Å; no PDB entry is named for it; also called hIKK2EE 1–700; hIKK2EE(1–700); source: Sf9 (baculovirus), purified (Ni-NTA, TEV, Superdex200); not shown: His6, N-terminal, cleaved
On to B3, for which the “stoichiometry N” value in data set [4] was found to be 2.
